Measurements reported in patent US20250197870A1, “RECOMBINANT E. COLI STRAIN PRODUCING 1,3-BUTANEDIOL FROM GLUCOSE AND METHOD FOR PRODUCING 1,3-BUTANEDIOL USING SAME” (ActivON Co.,Ltd., priority 2022, published 2025).

B1: DhaT: alcohol dehydrogenase from K. pneumoniae (protein, UniProt Q59477 1-387, looked up)
1,3-propanediol dehydrogenase: MSYRMFDYLVPNVNFFGPNAISVVGERCQLLGGKKALLVTDKGLRAIKDGAVDKTLHYLREAGIEVAIFDGVEPNPKDTNVRDGLAVFRREQCDIIVTVGGGSPHDCGKGIGIAATHEGDLYQYAGIETLTNPLPPIVAVNTTAGTASEVTRHCVLTNTETKVKFVIVSWRNLPSVSINDPLLMIGKPAALTAATGMDALTHAVEAYISKDANPVTDAAAMQAIRLIARNLRQAVALGSNLQARENMAYASLLAGMAFNNANLGYVHAMAHQLGGLYDMPHGVANAVLLPHVARYNLIANPEKFADIAELMGENITGLSTLDAAEKAIAAITRLSMDIGIPQHLRDLGVKEADFPYMAEMALKDGNAFSNPRKGNEQEIAAIFRQAF
B2: YgjB (Ahr): E. coli-derived alcohol dehydrogenase, 3-hydroxybutyraldehyde reductase, SEQ ID NO: 35 gene product (protein, listed as Escherichia coli)
chain: MSMIKSYAAKEAGGELEVYEYDPGELRPQDVEVQVDYCGICHSDLSMIDNEWGFSQYPLVAGHEVIGRVVALGSAAQDKGLQVGQRVGIGWTARSCGHCDACISGNQINCEQGAVPTIMNRGGFAEKLRADWQWVIPLPENIDIESAGPLLCGGITVFKPLLMHHITATSRVGVIGIGGLGHIAIKLLHAMGCEVTAFSSNPAKEQEVLAMGADKVVNSRDPQALKALAGQFDLIINTVNVSLDWQPYFEALTYGGNFHTVGAVLTPLSVPAFTLIAGDRSVSGSATGTPYELRKLMRFAARSKVAPTTELFPMSKINDAIQHVRDGKARYRVVLKADF
B3: YqhD: 3-hydroxybutyraldehyde reductase (E. coli), SEQ ID NO: 34 gene product (protein, UniProt Q46856 1-387, looked up)
NADPH-dependent aldehyde …: MNNFNLHTPTRILFGKGAIAGLREQIPHDARVLITYGGGSVKKTGVLDQVLDALKGMDVLEFGGIEPNPAYETLMNAVKLVREQKVTFLLAVGGGSVLDGTKFIAAAANYPENIDPWHILQTGGKEIKSAIPMGCVLTLPATGSESNAGAVISRKTTGDKQAFHSAHVQPVFAVLDPVYTYTLPPRQVANGVVDAFVHTVEQYVTKPVDAKIQDRFAEGILLTLIEDGPKALKEPENYDVRANVMWAATQALNGLIGAGVPQDWATHMLGHELTAMHGLDHAQTLAIVLPALWNEKRDTKRAKLLQYAERVWNITEGSDDERIDAAIAATRNFFEQLGVPTHLSDYGLDGSSIPALLKKLEEHGMTQLGENHDITLDVSRRIYEAAR
B4: YahK: E. coli-derived alcohol dehydrogenase, 3-hydroxybutyraldehyde reductase, SEQ ID NO: 36 gene product (protein, listed as Escherichia coli)
chain: MKIKAVGAYSAKQPLEPMDITRREPGPNDVKIEIAYCGVCHSDLHQVRSEWAGTVYPCVPGHEIVGRVVAVGDQVEKYAPGDLVGVGCIVDSCKHCEECEDGLENYCDHMTGTYNSPTPDEPGHTLGGYSQQIVVHERYVLRIRHPQEQLAAVAPLLCAGITTYSPLRHWQAGPGKKVGVVGIGGLGHMGIKLAHAMGAHVVAFTTSEAKREAAKALGADEVVNSRNADEMAAHLKSFDFILNTVAAPHNLDDFTTLLKRDGTMTLVGAPATPHKSPEVFNLIMKRRAIAGSMIGGIPETQEMLDFCAEHGIVADIEMIRADQINEAYERMLRGDVKYRFVIDNRTLTD

Test: Activity of purely isolated 3-HBA reductases (alcohol dehydrogenases) for 3-HBA
Format: biochemical
Settings: pure enzyme, substrate 3-HBA
Protocol: The activity of alcohol dehydrogenase was determined by photometric monitoring of the increase/decrease in NADP+/NADPH at 340 nm. The reaction mixture included 50 mM Tris-HCl at pH 7.0. For measurement of forward reactions, preparation was followed to include 0.15 mM NADPH and 5 mM 3-hydroxybutyraldehyde as substrates at 37° C. For reverse reactions, 2 mM NADP+ and 30 mM 1,3-BDO were used as cofactors and substrates, respectively. For the reduction reaction, 1 unit of enzymatic activity was defined as the amount of enzyme required to oxidize 1 μmol of NAD(P)H to NADP+ for 1 minute. For oxidation reactions, 1 unit of enzymatic activity was defined as the amount of enzyme required to reduce 1 μmol of NAD(P)+ to NAD(P)H for 1 minute.
Previously, 4 types of enzymes such as Cs_bdh, Ec_yqhD, Kp_dhaT, and Lr_pduQ were tested with 3-HBA reductase (FIG. 3), of which yqhD showing the best performance was used. However, the constant accumulation of 3-HBA and 3-HB indicates a lack of activity in these enzymes. Four aldoketoreductases (AKRs) were tested to improve the conversion from 3-HBA to 1,3-BDO. Two of the selected AKRs were derived from P. denitrificans, one derived from P. putida, and the other from P. aeruginosa. In addition, ygjB and yahK, also known as E. coli-derived alcohol dehydrogenase (ADH), were tested. Thereamong, enzymes coded by ygjB have been reported to have high activity for various aldehydes, especially high activity for butyraldehyde (kcat/Km, 221 sec-1 mM-1), while the enzyme coded by yahK has also been reported to have high activity for various aldehydes, especially high activity for butyraldehyde (kcat/Km, 19.8 sec-1 mM-1). Several ADH genes were cloned into E. coli, mass-produced, isolated and purified, and then tested for the activity of pure enzymes for 3-HBA.

Going from B1 to B2, the “Purely isolated enzymatic activity” value rises from 0.44 U/mg protein to 238 U/mg protein.

Going from B3 to B4, the “Purely isolated enzymatic activity” value rises from 0.06 U/mg protein to 6.98 U/mg protein.
